Results reported in patent US20210284747A1 (CAPELLA BIOSCIENCE, published 2021).
Positions count from the first letter of the chain named. Each block holds one binder with its values, some of them ahead of it.

Key:
[1] = target: LIGHT without residues 81-84, stably expressed on EL4 cells (EL4-NC-LIGHT); test: cell-based or functional assay
[2] = target: Full length LIGHT W198A on HEK293FF cells (Homo sapiens (Human), UniProt O43557 1-240); test: flow cytometry, HEK293FF, mAb at EC50
Procedure: (§1) The day of transfection the cells were seeded in a 24-well plate at 0.6×10⁶ cells/well. Lipofectamine 2000 (ThermoFisher scientific), 3 ul, was mixed with 50 μl OptiMEM medium (GIBCO) and then added to 50 μl Opti-MEM medium containing 3 ug plasmid DNA and incubated for 20 min at RT to form DNA-Lipofectamine 2000 complexes which were then added to the HEK293FF cells and incubated at 37° C., 5% CO₂ for 24 hours. For each construct, in duplicate, 0.60×10⁶ cells/well were used in a 96 well round bottom plate. Cells were centrifuged for 3 minutes at 300×g at 4° C., the supernatant discarded and the cells washed with 150 μl FACS buffer (0.5% FBS in phosphate buffered saline). This process was repeated 3 times. […] The wells were washed 3 times as above and 50 μl/well of goat anti-human IgG FITC (1:1500 dilution in FACS buffer, SIGMA F9512-2ML) or goat anti-mouse APC (1/500 dilution in FACS buffer, BDBioscience 550826), as appropriate, was added to the wells and incubated for 30 min at 4° C. protected from the light, with shaking. The cells were then washed as above, resuspended in 100 μl of FACS buffer and binding of the antibodies to the constructs was measured using flow cytometry and a total of 10,000 cells were acquired for each sample. Controls of buffer and secondary antibody only as well as HEK293FF non transfected cells were also used.

[3] = target: Full length LIGHT V196A on HEK293FF cells (Homo sapiens (Human), UniProt O43557 1-240); test: flow cytometry, HEK293FF, mAb at EC50
Procedure: as §1

[4] = target: Full length LIGHT S193A on HEK293FF cells (Homo sapiens (Human), UniProt O43557 1-240); test: flow cytometry, HEK293FF, mAb at EC50
Procedure: as §1

[5] = target: Full length LIGHT R195A on HEK293FF cells (Homo sapiens (Human), UniProt O43557 1-240); test: flow cytometry, HEK293FF, mAb at EC50
Procedure: as §1

[6] = target: Full length LIGHT T191A on HEK293FF cells (Homo sapiens (Human), UniProt O43557 1-240); test: flow cytometry, HEK293FF, mAb at EC50
Procedure: as §1

[7] = target: Full length LIGHT W197A on HEK293FF cells (Homo sapiens (Human), UniProt O43557 1-240); test: flow cytometry, HEK293FF, mAb at EC50
Procedure: as §1

[8] = target: Full length LIGHT R189A on HEK293FF cells (Homo sapiens (Human), UniProt O43557 1-240); test: flow cytometry, HEK293FF, mAb at EC50
Procedure: as §1

[9] = target: Full length LIGHT A190S on HEK293FF cells (Homo sapiens (Human), UniProt O43557 1-240); test: flow cytometry, HEK293FF, mAb at EC50
Procedure: as §1

[10] = target: Full length LIGHT S192A on HEK293FF cells (Homo sapiens (Human), UniProt O43557 1-240); test: flow cytometry, HEK293FF, mAb at EC50
Procedure: as §1

[11] = target: Full length LIGHT G188A on HEK293FF cells (Homo sapiens (Human), UniProt O43557 1-240); test: flow cytometry, HEK293FF, mAb at EC50
Procedure: as §1

[12] = target: Full length LIGHT S194A on HEK293FF cells (Homo sapiens (Human), UniProt O43557 1-240); test: flow cytometry, HEK293FF, mAb at EC50
Procedure: as §1

[13] = target: T1, Human LIGHT stably expressed on EL4 cells (EL4-LIGHT) (human, UniProt O43557 1-240); test: flow cytometry, EL4-LIGHT cells
T1 construct: whole, on cells; also called membrane LIGHT
Procedure: The EC50 of the 7 mAbs were calculated from binding to EL4-LIGHT cells (FIG. 1). […] Non-linear regression analysis was performed to determine the functional binding affinity measurement or EC50 for each mAb. A range of functional affinities was observed.

[14] = target: T2, Human LIGHT-32L, on II23 cells (human, UniProt O43557 1-240); test: flow cytometry on II23-LIGHT 32L cells, 4 ug mAb in 100 uL, goat anti-human Fc gamma-PE; signal as % of the commercial anti-LIGHT-PE
T2 construct: also called II23-LIGHT 32L
T2 chain: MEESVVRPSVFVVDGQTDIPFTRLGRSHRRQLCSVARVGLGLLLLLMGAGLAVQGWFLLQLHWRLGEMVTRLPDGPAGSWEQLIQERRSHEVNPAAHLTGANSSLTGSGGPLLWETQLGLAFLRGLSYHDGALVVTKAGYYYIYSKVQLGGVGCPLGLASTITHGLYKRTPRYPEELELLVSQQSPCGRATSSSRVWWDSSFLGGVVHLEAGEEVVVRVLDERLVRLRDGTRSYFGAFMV
Procedure: The cells were suspended at 1×10⁷ cells/ml and 100 uL aliquots were placed into wells of a 96-well plate, the cells spun down and washed in FACS buffer at 1800 rpm for 2 min. The cells were blocked with 1:100 dilution of anti-CD16/CD32 (eBioscience, San Diego, USA) in FACS buffer for 20 min at room temperature and then washed 1× in FACS buffer at 1800 rpm for 2 min. The cells were then resuspended in 100 uL FACS buffer+4 ug anti-membrane LIGHT mAbs or anti-LIGHT-PE (eBioscience, lot: E01621-1632) for 30 min in the dark at room temperature, followed by washing 1× in FACS buffer at 1800 rpm for 2 min and then resuspended in 100 uL FACS buffer plus 1:100 goat anti-human Fcγ-PE secondary antibody or no secondary antibody at 4° C. in the dark for 30 min. The cells were again washed 1× in FACS buffer at 1800 rpm for 2 min and fixed in 200 uL 2% paraformaldehyde overnight at 4° C. and read on a flow cytometer.

[15] = target: T1, Human LIGHT stably expressed on EL4 …; test: flow cytometry, against F19 and F23

Chain of Full length LIGHT V196A on HEK293FF cells (O43557 whole entry V196A): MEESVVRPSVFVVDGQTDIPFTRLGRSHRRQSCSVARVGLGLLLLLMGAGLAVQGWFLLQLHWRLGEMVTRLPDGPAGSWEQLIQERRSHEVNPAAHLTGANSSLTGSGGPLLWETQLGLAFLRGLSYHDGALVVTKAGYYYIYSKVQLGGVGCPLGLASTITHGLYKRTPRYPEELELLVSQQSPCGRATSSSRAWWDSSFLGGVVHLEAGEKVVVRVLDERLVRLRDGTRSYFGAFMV
Chain of Full length LIGHT S192A on HEK293FF cells (O43557 whole entry S192A): as the sequence (O43557 whole entry V196A) above, with S192A, A196V counted along it
Chain of Full length LIGHT R189A on HEK293FF cells (O43557 whole entry R189A): as the sequence (O43557 whole entry V196A) above, with R189A, A196V counted along it
Chain of Full length LIGHT R195A on HEK293FF cells (O43557 whole entry R195A): as the sequence (O43557 whole entry V196A) above, with R195A, A196V counted along it
Chain of Full length LIGHT T191A on HEK293FF cells (O43557 whole entry T191A): as the sequence (O43557 whole entry V196A) above, with T191A, A196V counted along it
Chain of Full length LIGHT W197A on HEK293FF cells (O43557 whole entry W197A): as the sequence (O43557 whole entry V196A) above, with A196V, W197A counted along it
T1 sequence (O43557 whole entry): as the sequence (O43557 whole entry V196A) above, with A196V counted along it
Chain of Full length LIGHT A190S on HEK293FF cells (O43557 whole entry A190S): as the sequence (O43557 whole entry V196A) above, with A190S, A196V counted along it
Chain of Full length LIGHT W198A on HEK293FF cells (O43557 whole entry W198A): as the sequence (O43557 whole entry V196A) above, with A196V, W198A counted along it
Chain of Full length LIGHT S194A on HEK293FF cells (O43557 whole entry S194A): as the sequence (O43557 whole entry V196A) above, with S194A, A196V counted along it
Chain of Full length LIGHT G188A on HEK293FF cells (O43557 whole entry G188A): as the sequence (O43557 whole entry V196A) above, with G188A, A196V counted along it

B1: 3B04_var8 (antibody, V domains shown)
VH: QVQLVQSGAEVKKPGASVKVSCKASGYTFTDYEMHWVRQAPGQGLEWMGEIDPETGDTAYAQKFQGRVTLTADKSTSTAYMELSSLRSEDTAVYYCSRETDYFFDYWGQGTLVTVSS
VL: DIQMTQSPSSLSASVGDRVTITCGASENIYGALNWYQRKQGKAPKLLIYGATNLADGVPSRFSGSGSGRDYTLTISSLQPEDFATYYCQNVLTTPWTFGQGTKLEIKR
IC50, inhibition of IL-8 secretion, HT-29 + EL4-NC-LIGHT cells [1]: 50 pM

B2: 3D12_var3 (antibody, V domains shown)
VH: B1 VH with G26D, Y32S, M34I, D57G
VL: B1 VL with K45Q, P59S, F83V, T93S
IC50, inhibition of IL-8 secretion, HT-29 + EL4-NC-LIGHT cells [1]: 530 pM

B3: 3B04_var6 (antibody, V domains shown)
VH: B1 VH with M48I, A61S, L83F
VL: B1 VL
IC50, inhibition of IL-8 secretion, HT-29 + EL4-NC-LIGHT cells [1]: 80 pM

B4: 3D12_var5 (antibody, V domains shown)
VH: B1 VH with G26D, Y32S, M34I, M48I, D57G, A61N, Q65K, V68A
VL: B1 VL with F83V, T93S
IC50, inhibition of IL-8 secretion, HT-29 + EL4-NC-LIGHT cells [1]: 590 pM

B6: 3B04_var9 (antibody, V domains shown)
VH: B1 VH with M48I, A61S, Q65K, V68A, L83F
VL: B1 VL with R38Q, Q40P
IC50, inhibition of IL-8 secretion, HT-29 + EL4-NC-LIGHT cells [1]: 90 pM

B7: 3B04_var2 (antibody, V domains shown)
VH: B1 VH with M48I, A61S, L83F
VL: B1 VL with K45Q, P59S
IC50, inhibition of IL-8 secretion, HT-29 + EL4-NC-LIGHT cells [1]: 60 pM

B10: 3D12_var11 (antibody, V domains shown)
VH: B1 VH with G26D, Y32S, M34I, D57G
VL: B1 VL with R38Q, Q40P, F83V, T93S
IC50, inhibition of IL-8 secretion, HT-29 + EL4-NC-LIGHT cells [1]: 550 pM

B11: 3B04_var4 (antibody, V domains shown)
VH: B1 VH
VL: B1 VL with K45Q, P59S
IC50, inhibition of IL-8 secretion, HT-29 + EL4-NC-LIGHT cells [1]: 40 pM

B14: 3D12_var6 (antibody, V domains shown)
VH: B1 VH with G26D, Y32S, M34I, M48I, D57G, A61N
VL: B1 VL with F83V, T93S
IC50, inhibition of IL-8 secretion, HT-29 + EL4-NC-LIGHT cells [1]: 470 pM

B15: 3D12_var1 (antibody, V domains shown)
VH: B1 VH with G26D, Y32S, M34I, M48I, D57G, A61N, Q65K, V68A
VL: B1 VL with K45Q, P59S, F83V, T93S
IC50, inhibition of IL-8 secretion, HT-29 + EL4-NC-LIGHT cells [1]: 330 pM

B19: 3E09 chimeric IgG4 mAb (antibody, V domains shown)
VH: EVQLVESGGGLVKPGGSLKLSCEASGFTFSDYYMYWVRQTPEKRLEWVAAIGDGGIYTYYADTVKGRFTISRDNAKNILYLQMSSLKSNDTAMYYCARGTGDGFAYWGQGTLVTVS
VL: DIVLTQSPASLAVSLGQRATISCRASESVDSYGNSFMHWYQQKPGQPPKLLIYLASNLESGVPARFSGSGSRTDFTLTIDPVEADDAATYYCQQNNEDPYTFGGGTKLEIK
notes: Chimeric human IgG4 (S-to-P, L-to-E) with human CL, as m1; also called Parental 3E09
% of WT binding [2]: 48%
% of WT binding [3]: 34%
% of WT binding [4]: 0%
% of WT binding [5]: 1%
% of WT binding [6]: 88%
% of WT binding [7]: 1%
% of WT binding [8]: 1%
% of WT binding [9]: 97%
% of WT binding [10]: 50%
% of WT binding [11]: 35%
% of WT binding [12]: 1%
EC50 [13]: 10400 pM
binding result [14]: binds
binding ratio, mAb to LIGHT trimer [15]: 1 mAb per LIGHT trimer

Second part, the binder after the results:

IC50, inhibition of IL-8 secretion, HT-29 + EL4-NC-LIGHT cells [1]: 440 pM
B5: 3D12_var10 (antibody, V domains shown)
VH: B1 VH with G26D, Y32S, M34I, M48I, D57G, A61N
VL: B1 VL with R38Q, Q40P, F83V, T93S

IC50, inhibition of IL-8 secretion, HT-29 + EL4-NC-LIGHT cells [1]: 40 pM
B8: 3B04_var10 (antibody, V domains shown)
VH: B1 VH with M48I, A61S, L83F
VL: B1 VL with R38Q, Q40P

IC50, inhibition of IL-8 secretion, HT-29 + EL4-NC-LIGHT cells [1]: 70 pM
B9: 3B04_var12 (antibody, V domains shown)
VH: B1 VH
VL: B1 VL with R38Q, Q40P

IC50, inhibition of IL-8 secretion, HT-29 + EL4-NC-LIGHT cells [1]: 50 pM
B12: 3B04_var1 (antibody, V domains shown)
VH: B1 VH with M48I, A61S, Q65K, V68A, L83F
VL: B1 VL with K45Q, P59S

IC50, inhibition of IL-8 secretion, HT-29 + EL4-NC-LIGHT cells [1]: 40 pM
B13: 3B04_var5 (antibody, V domains shown)
VH: B1 VH with M48I, A61S, Q65K, V68A, L83F
VL: B1 VL

IC50, inhibition of IL-8 secretion, HT-29 + EL4-NC-LIGHT cells [1]: 540 pM
B16: 3D12_var7 (antibody, V domains shown)
VH: B1 VH with G26D, Y32S, M34I, D57G
VL: B1 VL with F83V, T93S

IC50, inhibition of IL-8 secretion, HT-29 + EL4-NC-LIGHT cells [1]: 710 pM
B17: 3D12_var9 (antibody, V domains shown)
VH: B1 VH with G26D, Y32S, M34I, M48I, D57G, A61N, Q65K, V68A
VL: B1 VL with R38Q, Q40P, F83V, T93S

IC50, inhibition of IL-8 secretion, HT-29 + EL4-NC-LIGHT cells [1]: 740 pM
B18: 3D12_var2 (antibody, V domains shown)
VH: B1 VH with G26D, Y32S, M34I, M48I, D57G, A61N
VL: B1 VL with K45Q, P59S, F83V, T93S
